According to paper PMC3476531, “Synergy of Peptide and Sugar in O-GlcNAcase Substrate Recognition” (Chemistry & Biology, 2012):
Substitutions are numbered along the chain they refer to. *: point of attachment. βGlcNAc = CC(=O)N[C@@H]1[C@@H](O)[C@H](O)[C@@H](CO)O[C@H]1*

Columns and labels:
[1] = target: T1, human O-GlcNAcase (hOGA) Y69K (human) (UniProt O60502)
T1 sequence: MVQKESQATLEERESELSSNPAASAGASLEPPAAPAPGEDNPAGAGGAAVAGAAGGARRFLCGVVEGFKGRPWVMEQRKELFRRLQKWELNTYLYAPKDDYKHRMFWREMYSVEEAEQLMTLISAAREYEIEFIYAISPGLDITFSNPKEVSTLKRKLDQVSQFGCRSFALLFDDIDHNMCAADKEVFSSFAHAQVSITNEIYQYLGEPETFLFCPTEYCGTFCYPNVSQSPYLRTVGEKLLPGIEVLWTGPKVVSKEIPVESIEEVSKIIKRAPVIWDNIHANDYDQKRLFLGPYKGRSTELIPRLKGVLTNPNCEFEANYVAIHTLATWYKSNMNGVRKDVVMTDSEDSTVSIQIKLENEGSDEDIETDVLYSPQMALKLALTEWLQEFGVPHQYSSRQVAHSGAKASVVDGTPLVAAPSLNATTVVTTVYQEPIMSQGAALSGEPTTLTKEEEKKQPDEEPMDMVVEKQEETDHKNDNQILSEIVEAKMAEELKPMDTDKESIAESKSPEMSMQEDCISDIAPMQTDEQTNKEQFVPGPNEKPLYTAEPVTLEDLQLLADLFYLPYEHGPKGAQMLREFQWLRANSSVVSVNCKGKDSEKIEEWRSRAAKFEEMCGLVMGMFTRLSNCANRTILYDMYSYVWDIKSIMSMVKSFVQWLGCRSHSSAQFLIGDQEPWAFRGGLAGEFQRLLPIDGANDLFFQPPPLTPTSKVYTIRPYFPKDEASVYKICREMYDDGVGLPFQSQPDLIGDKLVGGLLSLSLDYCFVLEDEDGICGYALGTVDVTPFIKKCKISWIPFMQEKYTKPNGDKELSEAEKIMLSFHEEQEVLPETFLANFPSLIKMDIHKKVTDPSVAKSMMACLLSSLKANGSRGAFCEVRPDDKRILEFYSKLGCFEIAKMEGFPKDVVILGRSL

[2] = target: T2, human O-GlcNAcase (hOGA) Y69F (human) (UniProt O60502)
T2 sequence: T1 sequence with K69F

B1: TAB1 peptide PVSVPYS(O-GlcNAc)SAQSTS (peptide)
peptide: Ac-PVSVPYS(βGlcNAc)SAQSTS-NH2
SMILES: CC(=O)N[C@H]1[C@H](OC[C@H](NC(=O)[C@H](Cc2ccc(O)cc2)NC(=O)[C@@H]2CCCN2C(=O)[C@@H](NC(=O)[C@H](CO)NC(=O)[C@@H](NC(=O)[C@@H]2CCCN2C(C)=O)C(C)C)C(C)C)C(=O)N[C@@H](CO)C(=O)N[C@@H](C)C(=O)N[C@@H](CCC(N)=O)C(=O)N[C@@H](CO)C(=O)N[C@H](C(=O)N[C@@H](CO)C(N)=O)[C@@H](C)O)O[C@H](CO)[C@@H](O)[C@@H]1O
KM of the glycopeptide substrate (substrate competition assay with 4MU-GlcNAc as reporter substrate) [1]: > 4000 µM
KM of the glycopeptide substrate (substrate competition assay with 4MU-GlcNAc as reporter substrate) [2]: 1100 µM
